According to US12448423 (Xencor, dated 2025):

T1: HIS-tagged human NKG2D (human, UniProt P26718 73-216, limits assumed)
T1 construct: Captured on HIS1K biosensors; not shown: HIS tag
T1 sequence (looked up): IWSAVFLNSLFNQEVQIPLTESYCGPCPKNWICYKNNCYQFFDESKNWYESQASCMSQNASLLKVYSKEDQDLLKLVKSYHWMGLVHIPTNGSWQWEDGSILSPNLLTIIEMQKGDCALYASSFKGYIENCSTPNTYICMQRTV


biological target: T1, HIS-tagged human NKG2D; test: Octet (BLI): His-tagged human NKG2D captured on HIS1K biosensors, dipped into 100 nM bivalent mAb

| Binder | Kd [pM] | koff [s⁻¹] | kon [M⁻¹ s⁻¹] |
| --- | --- | --- | --- |
| XENP27593 (antibody, human IgG1, kappa, V domains shown, bivalent anti-NKG2D mAb, IgG1 with ablation variants; also called 6H7E7[NKG2D]_H0L0_IgG1_PVA_/S267K) VH: QVQLQESGPGLVAPSQSLSITCTVSGFSLTSYGVHWIRQPPGKGLEWLGVIWAGGSTNYNSALMSRLSISKDNSKSQVFLKMNSLQIDDTAMYYCARGGYEGAAWFGYWGQGTTVTVSS VL: DIQLTQSPAILSASPGEKVTMTCRASSSVSYMHWYQQKPGSSPKPWIYATSNLASGVPARFSGSGSGTSYSLTISRVEAEDAATYYCQQWNSNPLTFGAGTKLEIKR | ≤ 1 | ≤ 1e-07 | 231000 |
| XENP27597 (antibody, human IgG1, lambda, V domains shown, bivalent anti-NKG2D mAb, IgG1 with ablation variants; also called KYK-1.0[NKG2D]_H1L1_IgG1_PVA_/S267K) VH: EVQLVESGGGVVQPGGSLRLSCAASGFTFSSYGMHWVRQAPGKGLEWVAFIRYDGSNKYYADSVKGRFTISRDNSKNTKYLQMNSLRAEDTAVYYCAKDRFGYYLDYWGQGTLVTVSS VL: QPVLTQPSSVSVAPGETARIPCGGDDIETKSVHWYQQKPGQAPVLVIYDDDDRPSGIPERFFGSNSGNTATLSISRVEAGDEADYYCQVWDDNNDEWVFGGGTQLTVLG | 613 | 0.00113 | 1.85e+06 |
| XENP27592 (antibody, human IgG1, kappa, V domains shown, bivalent anti-NKG2D mAb, IgG1 with ablation variants; also called 6E5A7[NKG2D]_H0L0_IgG1_PVA_/S267K) VH: QVQLQQSGPGLVQPSQSLSITCTVSGFSLTIYGVHWVRQSPGKGLEWLGVIWSGGSTDYNAAFISRLSISKDNSKRQVFFKMSSLQANDTAIYYCSRKSHDGYYGVMDYWGQGTTVTVSS VL: DIQLTQSPAILSVSPGERVSFSCRASQSIGTSIHWYQQRTNGSPRLLIKYASESISGIPSRFSGSGSGTDFTLSINGVESEDIADYYCQQSNTWPLTFGAGTKLEIKR | ≤ 1 | ≤ 1e-07 | 489000 |
| XENP27596 (antibody, human IgG1, kappa, V domains shown, bivalent anti-NKG2D mAb, IgG1 with ablation variants; also called mAb D[NKG2D]_H1L1_IgG1_PVA_/S267K) VH: QVQLVQSGAEVKKPGASVKVSCKASGYTFTNYWMHWVRQAPGQGLEWMGEIDPSDIYTNYAQKFQGRVTMTRDTSTSTVYMELSSLRSEDTAVYYCARGIYDGYYVYGMDYWGQGTTVTVSS VL: YIQMTQSPSSLSASVGDRVTITCRSSQDISNYLNWYQQKPGKAPKLLIYYTSRLHSGVPSRFSGSGSGTDFTFTISSLQPEDIATYYCQQGKTLPRTFGGGTKVEIKR | ≤ 1 | ≤ 1e-07 | 698000 |
| XENP27591 (antibody, human IgG1, kappa, V domains shown, bivalent anti-NKG2D mAb, IgG1 with ablation variants; also called 11B2D10[NKG2D]_H0L0_IgG1_PVA_/S267K) VH: QVQLQQSGPELVRPGASVKLSCKASGYTFTSYWMNWVQQRPEQGLEWIGRIDPYDSETHYNQKFKDKAILTVDKSASTAYMQLSSLTSEDSAVYYCAKMGDYSFDYWGQGTTVTVSS VL: DIQLTQSPASLSASVGETVTITCRASGNIHNYLAWYQQKQGKSPQVLVYNAKTLADGVPSRFSGSGSGTQYSLKINSLQPEDFGSYYCQHFWSTTWTFGGGTKLEIKR | 547 | 0.000792 | 1.45e+06 |
| XENP27614 (antibody, human IgG1, kappa, V domains shown, humanized bivalent anti-NKG2D mAb, IgG1 with ablation variants; also called mAb A[NKG2D]_H2L2_IgG1_PVA_/S267K) VH: QVQLQESGPGLVKPSETLSLTCTVSGFSLTSYGVHWIRQPPGKGLEWIGVIWAGGSTNYNPSLKSRVTISKDNSKSQVSLKLSSVTAADTAVYYCARGGYEGAAWFGYWGQGTLVTVSS VL: DIQLTQSPATLSLSPGERATLSCRASSSVSYMHWYQQKPGQSPRPLIYATSNLASGVPARFSGSGSGTDYTLTISSLEPEDFAVYYCQQWNSNPLTFGAGTKVEIKR | ≤ 1 | ≤ 1e-07 | 200000 |
| XENP27612 (antibody, human IgG1, kappa, V domains shown, humanized bivalent anti-NKG2D mAb, IgG1 with ablation variants; also called mAb A[NKG2D]_H1L2_IgG1_PVA_/S267K) VH: QVQLVQSGAEVKKPGASVKVSCKVSGFSLTSYGVHWIRQAPGQGLEWMGVIWAGGSTNYNSKFQGRVTMTKDNSKSTVYMELSSLRSEDTAVYYCARGGYEGAAWFGYWGQGTLVTVSS VL: DIQLTQSPATLSLSPGERATLSCRASSSVSYMHWYQQKPGQSPRPLIYATSNLASGVPARFSGSGSGTDYTLTISSLEPEDFAVYYCQQWNSNPLTFGAGTKVEIKR | ≤ 1 | ≤ 1e-07 | 224000 |
| XENP27613 (antibody, human IgG1, kappa, V domains shown, humanized bivalent anti-NKG2D mAb, IgG1 with ablation variants; also called mAb A[NKG2D]_H2L1_IgG1_PVA_/S267K) VH: QVQLQESGPGLVKPSETLSLTCTVSGFSLTSYGVHWIRQPPGKGLEWIGVIWAGGSTNYNPSLKSRVTISKDNSKSQVSLKLSSVTAADTAVYYCARGGYEGAAWFGYWGQGTLVTVSS VL: DIQLTQSPSSLSASVGDRVTITCRASSSVSYMHWYQQKPGKSPKPLIYATSNLASGVPARFSGSGSGTDYTLTISSLQPEDFATYYCQQWNSNPLTFGAGTKVEIKR | ≤ 1 | ≤ 1e-07 | 254000 |
| XENP27611 (antibody, human IgG1, kappa, V domains shown, humanized bivalent anti-NKG2D mAb, IgG1 with ablation variants; also called mAb A[NKG2D]_H1L1_IgG1_PVA_/S267K) VH: QVQLVQSGAEVKKPGASVKVSCKVSGFSLTSYGVHWIRQAPGQGLEWMGVIWAGGSTNYNSKFQGRVTMTKDNSKSTVYMELSSLRSEDTAVYYCARGGYEGAAWFGYWGQGTLVTVSS VL: DIQLTQSPSSLSASVGDRVTITCRASSSVSYMHWYQQKPGKSPKPLIYATSNLASGVPARFSGSGSGTDYTLTISSLQPEDFATYYCQQWNSNPLTFGAGTKVEIKR | ≤ 1 | ≤ 1e-07 | 228000 |
| XENP27594 (antibody, V domains shown, bivalent anti-NKG2D mAb, IgG1 with ablation variants; also called mAb E[NKG2D]_H1L1_IgG1_PVA_/S267K) VH: EVQLVESGGGLVKPGGSLRLSCAASGFTFSSYSMNWVRQAPGKGLEWVSSITSSSSYIYYADSVKGRFTISRDNAKNSLYLQMNSLRAEDTAVYYCARDRRYFDWFPLDYRGQGTLVTVSS VL: DIQMTQSPSSLSASVGDRVTITCRASQGISSWLAWYQQKPEKAPKSLIYAASSLQSGVPSRFSGSGSGTDFTLTISSLQPEDFATYYCQQYNGYPYTFGQGTKLEIKR | 343 | 0.000387 | 1.13e+06 |
| XENP27598 (antibody, human IgG1, kappa, V domains shown, humanized bivalent anti-NKG2D mAb, IgG1 with ablation variants; also called mAb B[NKG2D]_H1L1_IgG1_PVA_/S267K) VH: QVQLVQSGAEVKKPGASVKVSCKASGYTFTSYWMNWVRQAPGQGLEWMGRIDPYDSETHYNQKFQGRVTMTVDKSTSTAYMELSSLRSEDTAVYYCAKMGDYSFDYWGQGTLVTVSS VL: DIQLTQSPSSLSASVGDRVTITCRASGNIHNYLAWYQQKPGKSPKVLVYNAKTLADGVPSRFSGSGSGTDYTLTISSLQPEDFATYYCQHFWSTTWTFGGGTKVEIKR | 679 | 0.000746 | 1.1e+06 |
| XENP27604 (antibody, human IgG1, kappa, V domains shown, humanized bivalent anti-NKG2D mAb, IgG1 with ablation variants; also called mAb B[NKG2D]_H3L1_IgG1_PVA_/S267K) VH: EVQLVESGGGLVQPGGSLRLSCAASGYTFTSYWMNWVRQAPGKGLVWVSRIDPYDSETHYNQKVKGRFTISVDKAKSTAYLQMNSLRAEDTAVYYCAKMGDYSFDYWGQGTLVTVSS VL: DIQLTQSPSSLSASVGDRVTITCRASGNIHNYLAWYQQKPGKSPKVLVYNAKTLADGVPSRFSGSGSGTDYTLTISSLQPEDFATYYCQHFWSTTWTFGGGTKVEIKR | 1010 | 0.00194 | 1.91e+06 |
| XENP27601 (antibody, human IgG1, kappa, V domains shown, humanized bivalent anti-NKG2D mAb, IgG1 with ablation variants; also called mAb B[NKG2D]_H2L1_IgG1_PVA_/S267K) VH: EVQLVQSGAEVKKPGESLRISCKASGYTFTSYWMNWVRQMPGKGLEWMGRIDPYDSETHYNPSFQGHVTISVDKSISTAYLQWSSLKASDTAMYYCAKMGDYSFDYWGQGTLVTVSS VL: DIQLTQSPSSLSASVGDRVTITCRASGNIHNYLAWYQQKPGKSPKVLVYNAKTLADGVPSRFSGSGSGTDYTLTISSLQPEDFATYYCQHFWSTTWTFGGGTKVEIKR | 894 | 0.0011 | 1.23e+06 |
| XENP27605 (antibody, human IgG1, kappa, V domains shown, humanized bivalent anti-NKG2D mAb, IgG1 with ablation variants; also called mAb B[NKG2D]_H3_L1.1_IgG1_PVA_/S267K) VH: EVQLVESGGGLVQPGGSLRLSCAASGYTFTSYWMNWVRQAPGKGLVWVSRIDPYDSETHYNQKVKGRFTISVDKAKSTAYLQMNSLRAEDTAVYYCAKMGDYSFDYWGQGTLVTVSS VL: DIQLTQSPSSLSASVGDRVTITCRASGNIHNYLAWYQQKPGKSPKVLVYNAKTLADGVPSRFSGSGSGTDYTLTISSLQPEDFATYYCQHFWSTPWTFGGGTKVEIKR | 3280 | 0.00943 | 2.88e+06 |
| XENP27606 (antibody, human IgG1, kappa, V domains shown, humanized bivalent anti-NKG2D mAb, IgG1 with ablation variants; also called mAb B[NKG2D]_H3L2_IgG1_PVA_/S267K) VH: EVQLVESGGGLVQPGGSLRLSCAASGYTFTSYWMNWVRQAPGKGLVWVSRIDPYDSETHYNQKVKGRFTISVDKAKSTAYLQMNSLRAEDTAVYYCAKMGDYSFDYWGQGTLVTVSS VL: DIQLTQSPDSLAVSLGERATINCKASGNIHNYLAWYQQKPGQSPKVLVYNAKTLADGVPSRFSGSGSGTDYTLTISSLQAEDVAVYYCQHFWSTTWTFGGGTKVEIKR | 1150 | 0.00204 | 1.77e+06 |
| XENP27602 (antibody, human IgG1, kappa, V domains shown, humanized bivalent anti-NKG2D mAb, IgG1 with ablation variants; also called mAb B[NKG2D]_H2_L1.1_IgG1_PVA_/S267K) VH: EVQLVQSGAEVKKPGESLRISCKASGYTFTSYWMNWVRQMPGKGLEWMGRIDPYDSETHYNPSFQGHVTISVDKSISTAYLQWSSLKASDTAMYYCAKMGDYSFDYWGQGTLVTVSS VL: DIQLTQSPSSLSASVGDRVTITCRASGNIHNYLAWYQQKPGKSPKVLVYNAKTLADGVPSRFSGSGSGTDYTLTISSLQPEDFATYYCQHFWSTPWTFGGGTKVEIKR | 1950 | 0.00144 | 740000 |
| XENP27600 (antibody, human IgG1, kappa, V domains shown, humanized bivalent anti-NKG2D mAb, IgG1 with ablation variants; also called mAb B[NKG2D]_H1L2_IgG1_PVA_/S267K) VH: QVQLVQSGAEVKKPGASVKVSCKASGYTFTSYWMNWVRQAPGQGLEWMGRIDPYDSETHYNQKFQGRVTMTVDKSTSTAYMELSSLRSEDTAVYYCAKMGDYSFDYWGQGTLVTVSS VL: DIQLTQSPDSLAVSLGERATINCKASGNIHNYLAWYQQKPGQSPKVLVYNAKTLADGVPSRFSGSGSGTDYTLTISSLQAEDVAVYYCQHFWSTTWTFGGGTKVEIKR | 595 | 0.000666 | 1.12e+06 |
| XENP27599 (antibody, human IgG1, kappa, V domains shown, humanized bivalent anti-NKG2D mAb, IgG1 with ablation variants; also called mAb B[NKG2D]_H1_L1.1_IgG1_PVA_/S267K) VH: QVQLVQSGAEVKKPGASVKVSCKASGYTFTSYWMNWVRQAPGQGLEWMGRIDPYDSETHYNQKFQGRVTMTVDKSTSTAYMELSSLRSEDTAVYYCAKMGDYSFDYWGQGTLVTVSS VL: DIQLTQSPSSLSASVGDRVTITCRASGNIHNYLAWYQQKPGKSPKVLVYNAKTLADGVPSRFSGSGSGTDYTLTISSLQPEDFATYYCQHFWSTPWTFGGGTKVEIKR | 3500 | 0.00169 | 482000 |
| XENP27603 (antibody, human IgG1, kappa, V domains shown, humanized bivalent anti-NKG2D mAb, IgG1 with ablation variants; also called mAb B[NKG2D]_H2L2_IgG1_PVA_/S267K) VH: EVQLVQSGAEVKKPGESLRISCKASGYTFTSYWMNWVRQMPGKGLEWMGRIDPYDSETHYNPSFQGHVTISVDKSISTAYLQWSSLKASDTAMYYCAKMGDYSFDYWGQGTLVTVSS VL: DIQLTQSPDSLAVSLGERATINCKASGNIHNYLAWYQQKPGQSPKVLVYNAKTLADGVPSRFSGSGSGTDYTLTISSLQAEDVAVYYCQHFWSTTWTFGGGTKVEIKR | 703 | 0.00121 | 1.73e+06 |
